Results taken from paper PMC11169033.

Substrate: CN(C)c1ccc(/C=C/c2cc[n+](C)cc2)cc1
Assay: saturation of fluorescent uptake in hOCT2-HEK293 cells (affinity, control condition)
Type: cell-based, Homo sapiens

B1: human organic cation transporter 2 (hOCT2) (Homo sapiens) (protein)
chain: MPTTVDDVLEHGGEFHFFQKQMFFLLALLSATFAPIYVGIVFLGFTPDHRCRSPGVAELSLRCGWSPAEELNYTVPGPGPAGEASPRQCRRYEVDWNQSTFDCVDPLASLDTNRSRLPLGPCRDGWVYETPGSSIVTEFNLVCANSWMLDLFQSSVNVGFFIGSMSIGYIADRFGRKLCLLTTVLINAAAGVLMAISPTYTWMLIFRLIQGLVSKAGWLIGYILITEFVGRRYRRTVGIFYQVAYTVGLLVLAGVAYALPHWRWLQFTVSLPNFFFLLYYWCIPESPRWLISQNKNAEAMRIIKHIAKKNGKSLPASLQRLRLEEETGKKLNPSFLDLVRTPQIRKHTMILMYNWFTSSVLYQGLIMHMGLAGDNIYLDFFYSALVEFPAAFMIILTIDRIGRRYPWAASNMVAGAACLASVFIPGDLQWLKIIISCLGRMGITMAYEIVCLVNAELYPTFIRNLGVHICSSMCDIGGIITPFLVYRLTNIWLELPLMVFGVLGLVAGGLVLLLPETKGKALPETIEEAENMQRPRKNKEKMIYLQVQKLDIPLN
notes: hOCT2 stably expressed in HEK293 cells
In the case of B1, the Km is reported as 20.5 µM.
